Results reported in patent publication US20120184020A1, “ENGINEERED MICROORGANISMS WITH ENHANCED FERMENTATION ACTIVITY” (Verdezyne, Inc., priority 2009, published 2012).

Experiments:
[1] = Xylose isomerase activity/kinetic assay on soluble whole cell extract (sorbitol dehydrogenase coupled, NADH, A340); type: biochemical; conditions: for Km: xylose 40-500 mM
Method: […] Louis, Mo.), and about 2 U sorbitol dehydrogenase (Roche) at about 30° C. […] A Beckman DU-800 was utilized with an Enzyme Mechanism software package (Beckman Coulter, Inc.), and the change in the A340 was monitored for 2-3 minutes.
[…] Louis, Mo.), and 2 U Sorbitol Dehydrogenase (SDH) (Roche, Indianapolis, Ind.) at about 30° C. […] A Beckman DU-800 spectrophotometer was utilized with an Enzyme Mechanism software package (Beckman Coulter, Inc, Brea, Calif.), and the change in the A340 was monitored for 2-3 minutes.
[…] Louis, Mo.), and 2 U sorbitol dehydrogenase (SDH) (Roche, Indianapolis, Ind.) at about 30° C. […] A Beckman DU-800 spectrophotometer was utilized with an Enzyme Mechanism software package (Beckman Coulter, Inc, Brea, Calif.), and the change in the A340 was monitored for 2-3 minutes.
Approximately 20 μg of soluble whole cell extract from each transformed cell line was prepared using Y-PER plus reagent as described above was incubated in a solution containing about 100 mM Tris, pH 7.5, 10 mM MgCl ? 2, 0.15 mM NADH (Sigma, St. Louis, Mo.), and 2 U Sorbitol Dehydrogenase (SDH) (Roche, Indianapolis, Ind.) at about 30° C. […] A Beckman DU-800 spectrophotometer was utilized with an Enzyme Mechanism software package (Beckman Coulter, Inc, Brea, Calif.), and the change in the A340 was monitored for 2-3 minutes.

[2] = test system: engineered yeast (S. cerevisiae); assay: Heterologous xylose isomerase expression in yeast (active yes/no); type: cell-based; conditions: xylose isomerase of donor organism expressed in engineered yeast (S. cerevisiae)
[3] = EDA activity assay: S. cerevisiae EDA extracts with saturating E. coli EDD extract (LDH coupled, NADH); type: biochemical; conditions: EDAs expressed in S. cerevisiae, saturating E. coli EDD extract
Method: EDA genes isolated from a variety of sources were expressed in yeast and evaluated independently of EDA activity, to identify EDA activities suitable of inclusion in an engineered yeast strain. […] The activity of integrated EDAs in Thermosacc-Gold haploids, were also evaluated in this manner.
EDD extractions (adapted from Chemyan et al, Protein Science 16:2368-2377, 2007): • 1) Pellet cells in 50 ml conical tubes, 4° C., 3,000 rpm, 10 mins, discard supernatant. • 2) Resuspend in 2 ml degassed PDGH buffer (20 mM MES pH 6.5, 30 mM NaCl, 5 mM MnCl2, 0.5 mM FeCl2, 10 mM 2-mercaptoethanol, 10 mM cysteine, sparged with nitrogen gas). Move to hungate tube. • 3) Add 0.1% Triton X-100, 10 ng/ml DNase, 10 μg/ml PMSF, 10 μg/ml TAME (Na-(p-toluene sulfonyl)-L-arginine methyl ester), 100 μg/ml lysozyme. • 4) Sparge hungate tube with nitrogen gas, cap and seal. Incubate 2 hours at 37° C., swirl occasionally. • 5) Clarify by centrifugation in 2-ml tube, 4° C., 10 mins, 14,000 rpm. Keep supernatant. • 6) Treat with 150 mM pyruvate and 10 mM sodium cyanoborohydride (work in hood) to inactivate aldolase activity. Incubate 30 mins at room temperature. • 7) During incubation, pre-equilibrate PD-10 column from GE • a. Remove top cap, pour off storage buffer. • b. Cut off bottom tip, fit in 50 ml conical with adapter. • c. Pour 5 ml of 20 mM MES buffer, pH 6.5 (total of 5 times). Discard flow-through. • 8) Run sample through column, then add MES buffer to a total of 2.5 ml volume added. Discard flow-through. • 9) Run 3.5 ml 20 mM MES pH 6.5 buffer to elute protein. Discard column in appropriate waste receptacle. • 10) Perform Bradford assay (1:10 or 1:20 dilution).
• 1) Spin down in 50 ml conicals, 4° C., 3,400 rpm, 5 mins. […]
Each reaction contains 50 mM Tris-HCl, pH 7, 10 mM MgCl2, 0.15 mM NADH, 15 μg LDH, saturating amounts of EDD determined empirically (usually −100 μg), 1-50 μg EDA (depending on level of activity), and 1 mM 6-phosphogluconate. Reactions are started by the addition of 6-phosphogluconate and monitored for 5 mins at 30° C.

[4] = ZWF1 (glucose-6-phosphate dehydrogenase) kinetic assay on crude extract with NADP+ or NAD+; type: biochemical
Method: Strain BY4742 zwf1 (ATCC Cat. No. 4011971; Winzeler E A, et al. Science 285: 901-906, 1999. PubMed: 10436161) was used as the base strain for all ZWF1 assays. The assays were performed as follows: A 5 ml overnight of the strain expressing the ZWF1 gene was grown in SCD-ura. A 50 ml culture of the strain was then grown for about 18 hours from an initial OD600 of about 0.2 until it had reached about OD600 of about 4. The cells were centrifuged at 1046×g washed twice with 25 ml cold sterile water, and resuspended in 2 ml/g Yper Plus (Thermo Scientific) plus 1×protease inhibitors (EDTA-free). The cells were allowed to lyse at room temperature for about 30 minutes with constant rotation of the tubes. The lysate was centrifuged at 16,100×g for 10 minutes at 4° C. and the supernatants were transferred to a new 1.5 ml microcentrifuge tube. Quantification of the lysates was performed using the Coomassie-Plus kit (Thermo Scientific, San Diego, Calif.) as directed by the manufacturer.
The reaction was started with 20 mM glucose-6-phosphate and the reaction was monitored at A340. The specific activity was measured as the μmol substrate/min/mg protein.

Molecule | Specific Activity ([1]; chimeric variants) [µmol/min/mg] | Km ([1]; chimeric variants) [mM] | also measured
Piromyces xylose isomerase: xylose isomerase from Piromyces strain E2, SEQ ID NO. 35 [reference compound] |  |  | Specific Activity ([1]; soluble whole cell extract, about 30° C.): 2.02 µmol/min/mg; Active? (yes/no) [2]: Yes
Codon-optimized EDA from P. aeruginosa: codon-optimized version of the P. aeruginosa EDA gene (protein, UniProt O68283 1-220, looked up, codon-optimized gene) 2-dehydro-3-deoxy-phosphogluco …: MHNLEQKTARIDTLCREARILPVITIDREADILPMADALAAGGLTALEITLRTAHGLTAIRRLSEERPHLRIGAGTVLDPRTFAAAEKAGASFVVTPGCTDELLRFALDSEVPLLPGVASASEIMLAYRHGYRRFKLFPAEVSGGPAALKAFSGPFPDIRFCPTGGVSLNNLADYLAVPNVMCVGGTWMLPKAVVDRGDWAQVERLSREALERFAEHRRH |  |  | EDA activity compared (in words) [3]: slight improvement over the native sequence
Mutant 13: S. cerevisiae ZWF1 site-directed mutant A24G/A51D (protein, UniProt P11412 2-505, looked up, variant A24G A51D) Glucose-6-phosphate …: SEGPVKFEKNTVISVFGASGDLGKKKTFPALFGLFREGYLDPSTKIFGYDRSKLSMEEDLKSRVLPHLKKPHGEADDSKVEQFFKMVSYISGNYDTDEGFDELRTQIEKFEKSANVDVPHRLFYLALPPSVFLTVAKQIKSRVYAENGITRVIVEKPFGHDLASARELQKNLGPLFKEEELYRIDHYLGKELVKNLLVLRFGNQFLNASWNRDNIQSVQISFKERFGTEGRGGYFDSIGIIRDVMQNHLLQIMTLLTMERPVSFDPESIRDEKVKVLKAVAPIDTDDVLLGQYGKSEDGSKPAYVDDDTVDKDSKCVTFAAMTFNIENERWEGVPIMMRAGKALNESKVEIRLQYKAVASGVFKDIPNNELVIRVQPDAAVYLKFNAKTPGLSNATQVTDLNLTYASRYQDFWIPEAYEVLIRDALLGDHSNFVRDDELDISWGIFTPLLKHIERPDGPTPEIYPYGSRGPKGLKEYMQKHKYVMPEKHPYAWPVTKPEDTKDN |  |  | NAD+ usage ([4]; initial kinetic screening of S. cerevisiae ZWF1 (zwf1_sc) mutants, preliminary cofactor phenotype, NAD+ as cofactor): Yes; NADP+ usage ([4]; initial kinetic screening of S. cerevisiae ZWF1 (zwf1_sc) mutants, preliminary cofactor phenotype, NADP+ as cofactor): No; cofactor utilization (NAD+ / NADP+) ([4]; initial kinetic screening of S. cerevisiae ZWF1 mutants): enabled NAD+ utilization with concomitant loss of NADP+ utilization
XI-Rp5: chimera: first 5 amino acids of Piromyces xylose isomerase followed by Ruminococcus xylose isomerase, SEQ ID NO. 56 (protein) MAKEYFSNIGKIQYQGPKSTDPLSFKYYNPEEVINGKTMREHLKFALSWWHTMGGDGTDMFGCGTTDKTWGQSDPAARAKAKVDAAFEIMDKLSIDYYCFHDRDLSPEYGSLKATNDQLDIVTDYIKEKQGDKFKCLWGTAKCFDHPRFMHGAGTSPSADVFAFSAAQIKKALESTVKLGGNGYVFWGGREGYETLLNTNMGLELDNMARLMKMAVEYGRSIGFKGDFYIEPKPKEPTKHQYDFDTATVLGFLRKYGLDKDFKMNIEANHATLAQHTFQHELRVARDNGVFGSIDANQGDVLLGWDTDQFPTNIYDTTMCMYEVIKAGGFTNGGLNFDAKARRGSFTPEDIFYSYIAGMDAFALGFRAALKLIEDGRIDKFVADRYASWNTGIGADIIAGKADFASLEKYALEKGEVTASLSSGRQEMLESIVNNVLFSL | 1.45 | 66.5 | 
XI-Rp10: chimera: first 10 amino acids of Piromyces xylose isomerase then amino acids 11 to 438 of Ruminococcus enzyme, SEQ ID NO. 58 (protein) MAKEYFPQIQQYQGPKSTDPLSFKYYNPEEVINGKTMREHLKFALSWWHTMGGDGTDMFGCGTTDKTWGQSDPAARAKAKVDAAFEIMDKLSIDYYCFHDRDLSPEYGSLKATNDQLDIVTDYIKEKQGDKFKCLWGTAKCFDHPRFMHGAGTSPSADVFAFSAAQIKKALESTVKLGGNGYVFWGGREGYETLLNTNMGLELDNMARLMKMAVEYGRSIGFKGDFYIEPKPKEPTKHQYDFDTATVLGFLRKYGLDKDFKMNIEANHATLAQHTFQHELRVARDNGVFGSIDANQGDVLLGWDTDQFPTNIYDTTMCMYEVIKAGGFTNGGLNFDAKARRGSFTPEDIFYSYIAGMDAFALGFRAALKLIEDGRIDKFVADRYASWNTGIGADIIAGKADFASLEKYALEKGEVTASLSSGRQEMLESIVNNVLFSL | 2.10 | 75.8 | 
XI-Rp15: chimera: first 15 amino acids of Piromyces xylose isomerase then amino acids 16 to 438 of Ruminococcus enzyme, SEQ ID NO. 60 (protein) MAKEYFPQIQKIKFEKSTDPLSFKYYNPEEVINGKTMREHLKFALSWWHTMGGDGTDMFGCGTTDKTWGQSDPAARAKAKVDAAFEIMDKLSIDYYCFHDRDLSPEYGSLKATNDQLDIVTDYIKEKQGDKFKCLWGTAKCFDHPRFMHGAGTSPSADVFAFSAAQIKKALESTVKLGGNGYVFWGGREGYETLLNTNMGLELDNMARLMKMAVEYGRSIGFKGDFYIEPKPKEPTKHQYDFDTATVLGFLRKYGLDKDFKMNIEANHATLAQHTFQHELRVARDNGVFGSIDANQGDVLLGWDTDQFPTNIYDTTMCMYEVIKAGGFTNGGLNFDAKARRGSFTPEDIFYSYIAGMDAFALGFRAALKLIEDGRIDKFVADRYASWNTGIGADIIAGKADFASLEKYALEKGEVTASLSSGRQEMLESIVNNVLFSL | 1.53 | 49.3 | 
